The data set in a line: soluble on expression in E. coli; label from the status in PepcDB or PDB records.
As for “MASHIVGYPRMGPKRELKFALESFWDGKSTAEDLQKVSADLRSSIWKQMSAAGTKFIPSNTFAHYDQVLDTTAMLGAVPPRYGYTGGEIGLDVYFSMARGNASVPAMEMTKWFDTNYHYIVPELGPEVNFSYASHKAVNEYKEAKALGVDTVPVLVGPVSYLLLSKAAKGVDKSFELLSLLPKILPIYKEVITELKAAGATWIQLDEPVLVMDLEGQKLQAFTGAYAELESTLSGLNVLVETYFADIPAEAYKTLTSLKGVTAFGFDLVRGTKTLDLVKAGFPEGKYLFAGVVDGRNIWANDFAASLSTLQALEGIVGKDKLVVSTSCSLLHTAVDLINETKLDDEIKSWLAFAAQKVVEVNALAKALAGQKDEALFSANAAALASRRSSPRVTNEGVQKAAAALKGSDHRRATNVSARLDAQQKKLNLPILPTTTIGSFPQTVELRRVRREYKAKKVSEEDYVKAIKEEIKKVVDLQEELDIDVLVHGEPERNDMVEYFGEQLSGFAFTANGWVQSYGSRCVKPPVIYGDVSRPKAMTVFWSAMAQSMTSRPMKGMLTGPVTILNWSFVRNDQPRHETCYQIALAIKDEVEDLEKGGIGVIQIDEAALREGLPLRKSEHAFYLDWAVHSFRITNCGVQDSTQIHTHMCYSHFNDIIHSIIDMDADVITIENSRSDEKLLSVFREGVKYGAGIGPGVYDIHSPRIPSSEEIADRVNKMLAVLEQNILWVNPDCGLKTRKYTEVKPALKNMVDAAKLIRSQLASAK”, the “soluble on expression in E. coli” value is reported as “soluble”.
In the case of “MASLWRAVIGGQNNNSEDYGGVEFWSNPERTGWLTKQGEYIKTWRRRWFVLKQGKLFWFKDSDVTRVSRPRGVVPVESCLTAKGAEDVLNKQNAFELSTRNETMYFIADSEKEKEDWINSIGRSIVQNSRSVTDSEIVDYDNKH” it was “soluble”; in that of “MASPVIYQAEDAIIYNAILETVNAGYTGSCYVNYHNEVGGYIEWNVNAPSSGSYALIFRYANGTTANRPMRITVNGNIVKPSMDFVSTGAWTTWNEAGIVANLNQGNNVIRATAIASDGGPNVDYLKVFSANAFQPVSLEHHHHHH”, “soluble”.
As to “MASRGKTETSKLKQNLEEQLDRLMQQLQDLEECREELDTDEYEETKKETLEQLSEFNDSLKKIMSGNMTLVDELSGMQLAIQAAISQAFKTPEVIRLFAKKQPGQLRTRLAEMDRDLMVGKLERDLYTQQKVEILTALRKLGEKLTADDEAFLSANAGAILSQFEKVSTDLGSGDKILALASFEVEKTKK”, the “soluble on expression in E. coli” value is reported as “not soluble”.
As for “MASSGDYDEIIKSISDAPPTHYMVKIESFSLLTKHAIERYETESFEAGGYKWKLVLYPNGNKSKNTKDHVSVYLSLADSSSLSPGWEVYAVFRLYLLDQNKDNYLILQGNERRFHSVKREWGFDKFIPTGTFSDASNGYLMEDTCMFGADVFVSKERRSGRGECLSMIKDATSSKHVWKIENFSKLDKESYDSNAFFAGDRKWKIEFYPTGTKQGTGTHLSIYLTLVDPETISDGTKIFVEFTIRIFDQLQGRHIAGKVTKWFSRSSSEHGWVKYVSMVYFTQPNSGLLLKDVCLVEADVCVHGITSAI”, the “soluble on expression in E. coli” value is reported as “soluble”.
To “MASSVLEMIKEEVTCPICLELLKEPVSADCNHSFCRACITLNYESNRNTDGKGNCPVCRVPYPFGNLKPNLHVANIVERLKGFKSIPEEEQKVNICAQHGEKLRLFCRKDMMVICWLCERSQEHRGHQTALIEEVDQEYKEKLQGALRKLMKKAKICDEWQDDLQLQRVDWENQIQINVENVQRQFKGLRDLLDSKENEELQKLKKEKKEVMEKLEESENELEDQTELVRDLISDVEHHLQLSTLEMLQGANCVLRRSQSLSLQQPQSVPQKRKRTFQAPDLKGMLQVYQGLMDIQQYWVHMTLHARNNAVIAINKEKRQIQYRSYNTVPVSEIYHLGVLGYPALSSGKHYWEVDISRSDAWLLGLNDGKCAQPQLHSKEEMGIKKNLHSQIKQNVLFQPKCGYWVIGMKNPSVYNAFDECSITHNSSILVISLPDCPSRVGVFLDRKAGTLSFYDVSNCGALIYRFYDPAFPVEVYPYFNPMKCSEPMTICGPPS” belongs “soluble”; to “MASTNTNLQKAIDLASKAAQEDKAGNYEEALQLYQHAVQYFLHVVKYEAQGDKAKQSIRAKCTEYLDRAEKLKEYLKKKEKKPQKPVKEEQSGPVDEKGNDSDGEAESDDPEKKKLQNQLQGAIVIERPNVKWSDVAGLEGAKEALKEAVILPIKFPHLFTGKRTPWRGILLFGPPGTGKSYLAKAVATEANNSTFFSISSSDLVSKWLGESEKLVKNLFQLARENKPSIIFIDEIDSLCGSRSENESEAARRIKTEFLVQMQGVGVDNDGILVLGATNIPWVLDSAIRRRFEKRIYIPLPEAHARAAMFRLHLGSTQNSLTEADFQELGRKTDGYSGADISIIVRDALMQPVRKVQSATHFKKVRGPSRADPNCIVNDLLTPCSPGDPGAIEMTWMDVPGDKLLEPVVSMWDMLRSLSSTKPTVNEQDLLKLKKFTEDFGQEG”, “soluble”.
In the case of “MATASHNIDDILQLKDDTGVITVTADNYPLLSRGVPGYFNILYITMRGTNSNGMSCQLCHDFEKTYHAVADVIRSQAPQSLNLFFTVDVNEVPQLVKDLKLQNVPHLVVYPPAESNKQSQFEWKTSPFYQYSLVPENAENTLQFGDFLAKILNISITVPQAFNVQEEFHHHHHHHHHH” it was “soluble”; in that of “MATEDAVREALATVNDPEINRPITELGMVKSVEIGADGAVAVAVYLTVSGCPMRDTITQRVSDAVSRVEGVTRVDVELDVMSDEQRKELATALRGGQTEREVPFAKPGSLTRVYAVASGKGGVGKSSVTVNLAASMAADGLKVGVVDADIYGHSVPRMLGADGRPTQVENMIMPPSAHGVKVISIGMFTPGNAPVVWRGPMLHRALQQFLADVYWGDLDVLLLDLPPGTGDIAISVAQLVPNAEILVVTTPQQAAAEVAERAGAIAVQTHQKIVGVVENMSGLPCPHCGEMVDVFGTGGGQTVADGLTRTTGASVPVLGAIPIDVRLREGGDEGKPVVLSDPDSPAGAALRSIAGKLGGRQRGLSGLSLGITPKNKFLEHHHHHH”, “soluble”; in that of “MATFPHFGTAAIHVGQEPEQWDMNQVVPPISLSSTYKQDNPGEPKGHDYSRAGNPTRDVLQKNLAALEDAKHCQVFSSGLAATSAIINLLKYGDHIVCSDDVYGGTQRYIRRVAVPNHGLEVDSVDLTDVQNLEKAIKPNTKMVWFESPSNPLLKVVDIAAVVQTAKKANPEIVVVVDNTFMSPYFQRPISLGADVVVHSITKYINGHSDVVMGAVITDNDEFQQHLFFMQLAVGAVPSPFDCFLVNRGLKTLHIRMRAHYENALAVAKYLEANDRIESVLYPALPSHPQHEVHEKQTKGMSGMISFYLKGELQESRAFLSALKVFTLAESLGGYESLAELPSIMTHASVPAETRIVLGITDNLIRISVGIEDLDDLVADLDQALKIAIPKV”, “not soluble”.
Consider “MATKKDVHDLFLNHVNSNAVKTRKMMGEYIIYYDSVVIGGLYDNRLLVKATKSVRHQLQDNTLVSPYPGAKEMILIPDITEAINLTNLFELIKNDLKN”, for which the “soluble on expression in E. coli” value is recorded as “not soluble”.
With “MATLKDIAIEAGVSLATVSRVLNDDPTLNVKEETKHRILEIAEKLEYKTSSARKLQTGAVNQHHILAIYSYQQELEINDPYYLAIRHGIETQCEKLGIELTNCYEHSGLPDIKNVTGILIVGKPTPALRAAASALTDNICFIDFHEPGSGYDAVDIDLARISKEIIDFYINQGVNRIGFIGGEDEPGKADIREVAFAEYGRLKQVVREEDIWRGGFSSSSGYELAKQMLAREDYPKALFVASDSIAIGVLRAIHERGLNIPQDISLISVNDIPTARFTFPPLSTVRIHSEMMGSQGVNLVYEKARDGRALPLLVFVPSKLKLRGTTR”, the “soluble on expression in E. coli” value was “soluble”.
With “MATMSRRWNYFTPHYNDEGSIDVLDGKPPYIDLFDPLKQPLFQHLRSMHTEFSTTTADVNTTWEDASSTSSSNKGATIWFNEDAIDKSSRHEIGQSTVTHESEDDRFSFFNAVCTRLNSLQETKNSSETEEHAESPRKEKSSTPYGTDGFAPPPRSTQTNTLKVSNLPKRFESLYKKKRQQVATSDSSGFGSNASDFWSFERYGKSNQGTLERPNRLFTGTNNGFSTLQPKRRGSEAPKMTVELRYENDVPMVAKISANHAQSVTLRYFRHLFGLHYTDNCR”, the “soluble on expression in E. coli” value is recorded as “not soluble”.
Regarding “MATNFLVGEKIWFHKFKYGDAERRFYEQMNGPVAGASLQEASMILHDIARARENIPKSLAGSLGPGASSGPSGDHSELVVRIASLEVDNQRDLAERAGEELARPLGHSPADPAHVSHAPSGAPGQEASHTSRG”, the “soluble on expression in E. coli” value is given as “soluble”.
